# Reference: patent publication US20230106247A1 (L AND L BIO CO LTD NINGBO CHINA, published 2023)
# Residue numbers refer to the chain shown, from its start. Where two headings read alike, the source gives them in different places.
# T1: Cyno Sirpα L936 (cynomolgus)
# T1 construct: also called RB3-3; Cyno Sirpα polymorphism 3 (L936)
# T1 chain: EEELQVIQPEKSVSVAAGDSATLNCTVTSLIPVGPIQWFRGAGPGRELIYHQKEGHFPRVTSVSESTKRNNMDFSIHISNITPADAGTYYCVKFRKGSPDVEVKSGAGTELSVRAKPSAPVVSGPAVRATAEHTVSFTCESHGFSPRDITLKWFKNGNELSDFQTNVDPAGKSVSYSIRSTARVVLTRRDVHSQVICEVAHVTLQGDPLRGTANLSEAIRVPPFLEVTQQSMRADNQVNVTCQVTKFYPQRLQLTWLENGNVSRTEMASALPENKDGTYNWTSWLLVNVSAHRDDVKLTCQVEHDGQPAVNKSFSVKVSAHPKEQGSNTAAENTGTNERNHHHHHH
# T2: Cyno Sirpα L938 (cynomolgus, limits assumed)
# T2 construct: also called RB6-1; Cyno Sirpα polymorphism 5 (L938)
# T2 chain: T1 chain with D19E, V27A, A42V, S62P, E65D, S66P, H77R, V103L, T245M
# T3: Cyno Sirpα L939 (cynomolgus, limits assumed)
# T3 construct: also called RB6-2; Cyno Sirpα polymorphism 6 (L939)
# T3 chain: T1 chain with D19E, V27A, A42V, H51S, S62P, E65D, S66P, H77R, V103L
# B1: humanized antibody mab14-h16 (antibody, human IgG4 S228P, kappa, V domains shown)
# VH: QVQLVQSGAEVKKPGASVKVSCKASGYNFNIYWINWVRQAPGQGLEWIGNIYPSSISTNYNEKFKTRATLTVDKSTSTVYMELSSLRSEDTAVYYCARSEGTYYGGRYEGDWFGYWGQGTLVTVSS
# VL: DIQMTQSPSSLSASVGDRVTITCRASQDIRNYLNWYQQKPGKAPKLLIYFTSTLHSGVPSRFSGSGSGTDFTLTISSLQPEDFATYYCQQGNTLPWTFGGGTKVEIKR
# notes: hIgG4, κ
# Key:
# human Sirpα-V1-his [1] = target: T4, human Sirpα-V1-his (human, UniProt P78324 31-373); assay: ELISA
# T4 construct: range 31-373; Bought (Sino Biological 11612-H08H) or expressed in-house; also called hSirpα-V1; hSirpα-V1-his
# human Sirpα-V2-his = human Sirpα-V2-his (human); assay: ELISA
# Method: (§1) Different antigens (recombinant proteins) such as the human Sirpα-V1-hFc, Sirpα-V1-his, Sirpα-V2-his, Sirpβ-his, Sirpγ-his, monkey Sirpα-his (cynoSirpα-his) or NOD-mSirpα-his described in Example 1 were diluted with a PBS buffer at pH7.4 to concentrations of 1 μg/mL, 2 μg/mL or 5 μg/mL, added into a 96-well ELISA plate (Corning, CLS3590-100EA) at a volume of 50 μL/well, and placed in an incubator at 37° C. for 2 hours. After the liquid was discarded, the wells were added with a blocking solution of 5% skimmed milk (skimmed milk powder available from Bright Dairy) diluted with PBS at 230 μL/well, and incubated in an incubator at 37° C. for 3 hours, or placed overnight at 4° C. (for 16-18 hours) for blocking. The blocking solution was discarded, and the plate was washed with a PBST buffer (pH7.4 PBS containing 0.05% Tween-20) for 5 times, then added with 50 μL/well of the supernatant (containing a detection antibody) or 10 μg/mL of the starting 5-fold gradient dilution of the antibody to be tested, and incubated at 37° C. for 1 hour. […] The plated was washed with PBST for 5 times, then added with 50 μL/well of TMB chromogenic substrate (KPL, Cat #: 52-00-03), incubated at room temperature for 10-15 min, added with 50 μL/well of 1 M H₂SO₄ to stop the reaction, and read by a […] Go microplate reader (ThermoFisher, Cat #: 51119200) for the absorbance value at 450 nm, and then a clone with high binding activity was selected or a EC₅₀ value was calculated according to the OD value.
# human Sirpα-V1-his [2] = target: T4, human Sirpα-V1-his; assay: ELISA; remark: listed apart in the source
# Method: as §1
# Cyno Sirpα L936 = target: T1, Cyno Sirpα L936; assay: ELISA
# Method: as §1
# Cyno Sirpα L938 = target: T2, Cyno Sirpα L938; assay: ELISA
# Method: as §1
# Cyno Sirpα L939 = target: T3, Cyno Sirpα L939; assay: ELISA
# Method: as §1
# Cyno Sirpα L933 = target: T5, Cyno Sirpα L933 (cynomolgus); assay: ELISA
# T5 construct: extracellular domain; also called Cyno Sirpα polymorphism 2 (L933)
# Method: as §1
# human Sirpα-V1-hFc = target: T6, human Sirpα-V1-hFc (human, UniProt P78324 31-373); assay: blocking ELISA, competitor CD47-his
# T6 construct: range 31-373; also called hSirpα (dimer); hSirpα-V1-hFc (dimer); not shown: human IgG1 Fc region at the C-terminus
# Method: The recombinant proteins such as human Sirpα-V1-hFc/Sirpα-V1-his were diluted to concentrations of 5 μg/mL or 2 μg/mL respectively with a PBS buffer at pH 7.4, and then added into a 96-well ELISA plate (Corning, CLS3590-100EA) at a volume of 50 μL/well, and placed in an incubator at 37° C. for 2 hours. After the liquid was discarded, the wells were added with a blocking solution of 5% skimmed milk (skimmed milk powder available from Bright Dairy) diluted with PBS at 230 μL/well, and incubated in an incubator at 37° C. for 3 hours, or placed overnight at 4° C. (for 16-18 hours) for blocking. […] The plate was washed for 5 times, added with 50 μL/well of streptavidin-HRP (GenScript, M00091) or anti-his-HRP secondary antibody (GenScript, A00612) diluted at 1:1000, incubated at 37° C. for 1 hour, and then washed with PBST for 5 times. Each well was added with 50 μL of TMB (Surmodic, Cat #: TTMB-1000-01) for color development, and added with 50 μL/well of 1 M H₂SO₄ to stop the reaction. The readings on a microplate reader (MultiskanGO Thermo, Model 51119200) were subjected to data analysis by GraphPad prism 5.
# Chain of human Sirpα-V2-his (human) (chain, as listed by the source): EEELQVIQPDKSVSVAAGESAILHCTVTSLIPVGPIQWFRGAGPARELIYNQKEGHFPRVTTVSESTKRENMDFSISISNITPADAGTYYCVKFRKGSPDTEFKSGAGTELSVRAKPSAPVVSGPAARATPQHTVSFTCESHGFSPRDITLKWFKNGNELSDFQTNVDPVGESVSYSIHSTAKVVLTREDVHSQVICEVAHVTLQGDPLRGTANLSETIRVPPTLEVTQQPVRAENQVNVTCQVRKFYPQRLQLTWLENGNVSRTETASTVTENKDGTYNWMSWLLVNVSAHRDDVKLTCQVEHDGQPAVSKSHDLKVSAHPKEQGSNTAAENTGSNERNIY
binder,measurement,setting,value
B1,EC50,human Sirpα-V1-his [1],0.087 nM
same,EC50,human Sirpα-V2-his,0.094 nM
same,EC50,human Sirpα-V1-his [2],0.065 nM
same,EC50,Cyno Sirpα L936,0.143 nM
same,binding result,Cyno Sirpα L938,no binding (tested: the binding signal was not detected)
same,binding result,Cyno Sirpα L939,no binding (tested: the binding signal was not detected)
same,EC50,Cyno Sirpα L933,0.159 nM
same,IC50,human Sirpα-V1-hFc,5.92 nM
